B1: GST-SNX27(PX) (domain or fragment)
chain: EKQAVPISVPRYKHVEQNGEKFVVYNVYMAGRQLCSKRYREFAILHQNLKREFANFTFPRLPGKWPFSLSEQQLDARRRGLEEYLEKVCSIRVIGESDIMQEFLSESDENYNGVS
B2: WDR91-His6 (natural protein)
chain: MAEAVERTDELVREYLLFRGFTHTLRQLDAEIKADKEKGFRVDKIVDQLQQLMQVYDLAALRDYWSYLERRLFSRLEDIYRPTIHKLKTSLFRFYLVYTIQTNRNDKAQEFFAKQATELQNQAEWKDWFVLPFLPSPDTNPTFATYFSRQWADTFIVSLHNFLSVLFQCMPVPVILNFDAECQRTNQVQEENEVLRQKLFALQAEIHRLKKEEQQPEEEEALVQHKLPPYVSNMDRLGDSELAMVCSQRNASLSQSPRVGFLSSLLPQSKKSPSRLSPAQGPPQPQSSAKKESFGGQGTKGKDPTSGAKDGKSLLSGLATGESGWSQHRQRRLQDHGKERKELFSTTTSQCAEKKPEASGPEAEPCPELHTEPVEPLTRASSAGPEGGGVRPEQPFIVLGQEEYGEHHSSIMHCRVDCSGRRVASLDVDGVIKVWSFNPIMQTKASSISKSPLLSLEWATKRDRLLLLGSGVGTVRLYDTEAKKNLCEININDNMPRILSLACSPNGASFVCSAAAPSLTSQVDFSAPDIGSKGMNQVPGRLLLWDTKTMKQQLQFSLDPEPIAINCTAFNHNGNLLVTGAADGVIRLFDMQQHECAMSWRAHYGEVYSVEFSYDENTVYSIGEDGKFIQWNIHKSGLKVSEYSLPSDATGPFVLSGYSGYKQVQVPRGRLFAFDSEGNYMLTCSATGGVIYKLGGDEKVLESCLSLGGHRAPVVTVDWSTAMDCGTCLTASMDGKIKLTTLLAHKA
B3: GST-SNX2 (natural protein)
chain: MAAEREPPPLGDGKPTDFEDLEDGEDLFTSTVSTLESSPSSPEPASLPAEDISANSNGPKPTEVVLDDDREDLFAEATEEVSLDSPEREPILSSEPSPAVTPVTPTTLIAPRIESKSMSAPVIFDRSREEIEEEANGDIFDIEIGVSDPEKVGDGMNAYMAYRVTTKTSLSMFSKSEFSVKRRFSDFLGLHSKLASKYLHVGYIVPPAPEKSIVGMTKVKVGKEDSSSTEFVEKRRAALERYLQRTVKHPTLLQDPDLRQFLESSELPRAVNTQALSGAGILRMVNKAADAVNKMTIKMNESDAWFEEKQQQFENLDQQLRKLHVSVEALVCHRKELSANTAAFAKSAAMLGNSEDHTALSRALSQLAEVEEKIDQLHQEQAFADFYMFSELLSDYIRLIAAVKGVFDHRMKCWQKWEDAQITLLKKREAEAKMMVANKPDKIQQAKNEIREWEAKVQQGERDFEQISKTIRKEVGRFEKERVKDFKTVIIKYLESLVQTQQQLIKYWEAFLPEAKAIA

Experiments:
Test in all cases: pull-down
WDR91-His6 = target: B2
His6-WDR91(392-747) = target: T1, His6-WDR91(392-747) (UniProt A4D1P6 392-747)
T1 sequence: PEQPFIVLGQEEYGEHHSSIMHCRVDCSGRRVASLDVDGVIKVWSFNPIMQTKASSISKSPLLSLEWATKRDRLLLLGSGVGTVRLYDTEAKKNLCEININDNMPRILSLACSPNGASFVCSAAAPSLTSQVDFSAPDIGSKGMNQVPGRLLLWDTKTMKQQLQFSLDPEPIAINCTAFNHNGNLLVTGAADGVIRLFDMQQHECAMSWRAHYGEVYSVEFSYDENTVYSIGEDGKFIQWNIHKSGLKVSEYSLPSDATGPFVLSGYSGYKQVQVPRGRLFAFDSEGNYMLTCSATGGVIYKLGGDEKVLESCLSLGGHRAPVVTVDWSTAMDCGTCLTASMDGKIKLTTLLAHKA

GST-SNX27 = GST-SNX27 (UniProt Q96L92 1-541)
GST-VPS35 = GST-VPS35 (UniProt Q96QK1 1-796)

Row | Binder | binding result (WDR91-His6) | binding result (His6-WDR91(392-747)) | binding result (GST-SNX27) | binding result (GST-VPS35)
1 | B1 | binds | binds |  | 
2 | B2 |  |  | binds | binds
3 | B3 | binds |  |  | 
